Target: αVβ3 integrin (rat (endogenous in primary astrocytes)) (UniProt Q8R2H2)
Chain of UniProt Q8R2H2 (Q8R2H2 whole entry, looked up): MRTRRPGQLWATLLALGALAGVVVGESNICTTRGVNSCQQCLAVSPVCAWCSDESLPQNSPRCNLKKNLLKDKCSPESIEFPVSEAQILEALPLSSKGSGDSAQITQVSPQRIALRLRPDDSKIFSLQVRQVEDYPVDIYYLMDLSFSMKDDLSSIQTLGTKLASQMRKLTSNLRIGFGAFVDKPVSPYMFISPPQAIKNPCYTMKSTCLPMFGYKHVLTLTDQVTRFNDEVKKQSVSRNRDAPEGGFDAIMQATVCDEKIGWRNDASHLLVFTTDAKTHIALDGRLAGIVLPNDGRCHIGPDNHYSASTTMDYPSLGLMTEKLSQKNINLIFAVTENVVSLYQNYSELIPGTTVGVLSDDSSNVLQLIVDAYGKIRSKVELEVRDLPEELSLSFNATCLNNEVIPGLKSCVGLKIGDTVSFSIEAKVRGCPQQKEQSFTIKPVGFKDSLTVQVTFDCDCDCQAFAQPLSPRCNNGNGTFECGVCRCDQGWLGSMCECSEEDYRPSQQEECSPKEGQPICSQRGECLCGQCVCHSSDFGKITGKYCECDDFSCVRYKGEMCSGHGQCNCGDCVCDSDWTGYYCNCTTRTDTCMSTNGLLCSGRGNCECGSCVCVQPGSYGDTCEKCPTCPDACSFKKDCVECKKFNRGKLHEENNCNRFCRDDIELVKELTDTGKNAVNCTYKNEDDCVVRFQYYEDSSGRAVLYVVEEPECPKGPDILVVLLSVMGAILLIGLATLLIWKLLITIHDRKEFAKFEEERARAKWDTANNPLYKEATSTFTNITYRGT

wound closure (migration) of primary astrocytes pretreated with Hp OMVs (2.5 µg/ml, 12 h), then stimulated with Thy-1-Fc/Protein-A for 24 h: 25%
wound closure (migration) of primary astrocytes pretreated with TNF (10 ng/ml, 48 h), then stimulated with Thy-1-Fc/Protein-A for 24 h: 10%
B1: Thy-1-Fc fusion protein (Fc fusion)
chain: QKVTSLTACLVNQNLRLDCRHENNTKDNSIQHEFSLTREKRKHVLSGTLGIPEHTYRSRVTLSNQPYIKVLTLANFTTKDEGDYFCELQVSGANPMSSNKSISVYRDKLVKC

From publication PMC9996972
